Experimental data published in US20210332339.

Experiments:
Experiment in all cases: cell_activity
[1] = tested on: ZFA36-ND3 (Artificial (ND3 from Clostridium sp. 7_2_43FAA))
[2] = tested on: ZFA36-ND4 (Artificial (ND4 from Clostridiales bacterium))
[3] = tested on: ZFA36-FokI (FokI-ND ZFN) (Artificial)
[4] = tested on: ZFA36-FokI-Sharkey (Artificial); details: SSA reporter HEK293T
[5] = tested on: ZFA36-ND1 (Artificial (ND1 from Bacillus sp. SGD-V-76))
[6] = tested on: TALE-ROSA26-FokI right (Artificial); details: SSA reporter pair with left TALEN, close to reference
[7] = tested on: TALE-ROSA26-ND1 right (Artificial); details: SSA reporter pair with left TALEN
[8] = tested on: ZFL1-ND1 (Artificial); details: SSA, ZFL1-ND1 alone
ZFL1-ND1 (Artificial), sequence (chain, as listed by the source): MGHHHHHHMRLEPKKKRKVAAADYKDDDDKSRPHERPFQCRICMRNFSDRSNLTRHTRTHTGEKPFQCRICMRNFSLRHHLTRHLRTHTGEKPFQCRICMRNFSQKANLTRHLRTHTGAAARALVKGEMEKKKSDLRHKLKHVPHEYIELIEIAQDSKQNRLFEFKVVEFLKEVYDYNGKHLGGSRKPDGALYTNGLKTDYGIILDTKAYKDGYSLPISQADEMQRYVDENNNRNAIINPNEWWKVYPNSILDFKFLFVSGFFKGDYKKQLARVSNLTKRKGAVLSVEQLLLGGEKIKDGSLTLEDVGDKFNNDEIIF

[9] = tested on: TALE-HPRT1-FokI right (Artificial); details: SSA reporter pair with left TALEN
[10] = tested on: TALE-HPRT1-ND1 right (Artificial); details: SSA reporter pair with left TALEN
[11] = tested on: TALE-HPRT1-FokI left (Artificial); details: SSA reporter pair with right TALEN
[12] = tested on: TALE-HPRT1-ND1 left (Artificial); details: SSA reporter pair with right TALEN
[13] = tested on: TALE-ROSA26-FokI left (Artificial); details: SSA reporter pair with right TALEN, close to reference
[14] = tested on: TALE-ROSA26-ND1 left (Artificial); details: SSA reporter pair with right TALEN

ZFA36-FokI (FokI-ND ZFN) (Artificial), sequence (chain, as listed by the source): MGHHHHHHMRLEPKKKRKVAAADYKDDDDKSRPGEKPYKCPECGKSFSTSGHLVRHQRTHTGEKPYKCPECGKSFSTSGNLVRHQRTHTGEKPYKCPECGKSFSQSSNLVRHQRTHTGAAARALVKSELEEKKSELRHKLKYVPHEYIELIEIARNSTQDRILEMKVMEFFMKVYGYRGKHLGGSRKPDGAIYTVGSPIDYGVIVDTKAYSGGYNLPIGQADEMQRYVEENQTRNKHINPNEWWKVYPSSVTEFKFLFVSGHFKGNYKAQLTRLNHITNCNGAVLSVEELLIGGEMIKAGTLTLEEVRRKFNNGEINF
ZFA36-FokI-Sharkey (Artificial), sequence (chain, as listed by the source): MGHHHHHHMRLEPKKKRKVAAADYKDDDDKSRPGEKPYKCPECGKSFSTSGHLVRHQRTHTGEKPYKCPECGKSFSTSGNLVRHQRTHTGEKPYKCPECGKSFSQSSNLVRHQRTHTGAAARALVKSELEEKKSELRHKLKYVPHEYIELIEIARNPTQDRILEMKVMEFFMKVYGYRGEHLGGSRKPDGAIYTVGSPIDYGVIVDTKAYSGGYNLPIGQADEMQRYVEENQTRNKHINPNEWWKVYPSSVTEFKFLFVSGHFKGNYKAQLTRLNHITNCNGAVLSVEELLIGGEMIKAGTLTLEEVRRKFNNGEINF

Sequence: ACCATCTTCAAGAGAGAAGATGGC (double strand) [ZFA36-ZFA36 CHO-K1 2nd site]
- activity (% mutated clones) ([1]; CHO-K1, 3/16): 18.8
- activity (% mutated clones) ([2]; CHO-K1, 0/14): 0

Sequence: ACCATCTTCCACTCTGAAGATGGA (double strand) [ZFA36-ZFA36 CHO-K1 1st site]
- activity (% mutated clones) ([1]; CHO-K1, 0/15, Cel-I about 25-45% of FokI depending on site): 0
- activity (% mutated clones) ([2]; CHO-K1, 0/16, no cleavage detected): 0

Sequence: ACCATCTTCNNNNNNGAAGATGGT (double strand) [ZFA36-6bp-ZFA36 site]
- binding signal ([3]; SSA reporter HEK293T, reference): 1
- binding signal (fold of ZFA36-FokI) [4]: 1.5
- binding signal (fold of ZFA36-FokI) ([5]; SSA reporter HEK293T): > 1.2
- binding signal (fold of ZFA36-FokI) ([1]; SSA reporter HEK293T): 0.2
- binding signal (fold of ZFA36-FokI) ([2]; SSA reporter HEK293T): 0.2

Sequence: GCCTCGACTTGCAGATCA (double strand) [ROSA26 right half-site (top strand)]
- binding signal (fold of ZFA36-FokI) [6]: 1
- binding signal (fold of TALE-ROSA26-FokI) [7]: 2

Sequence: GTCACCTTCNNNNNNGAAGATGGT (double strand) [ZFL1-6bp-ZFA36 site]
- binding signal ([3]; SSA, ZFA36-FokI alone): 35%
- binding signal ([5]; SSA, ZFA36-ND1 alone): 90%
- binding signal [8]: 40%

Sequence: TCCTAATCACTATGTCGA (double strand) [HPRT1 right half-site (top strand)]
- binding signal (fold of ZFA36-FokI) [9]: 0.5
- binding signal (fold of TALE-HPRT1-FokI) [10]: 2

Sequence: TGAACCAGGCTATGACCT (double strand) [HPRT1 left half-site]
- binding signal (fold of ZFA36-FokI) [11]: 0.5
- binding signal (fold of TALE-HPRT1-FokI) [12]: 2

Sequence: TGCCCAGAAGACTCCCG (double strand) [ROSA26 left half-site]
- binding signal (fold of ZFA36-FokI) [13]: 1
- binding signal (fold of TALE-ROSA26-FokI) [14]: 2
